Test results reported in US20210379110A1 (LENTIGEN TECHNOLOGY, published 2021).
Changes are numbered by the printed parent chain.

B1: human anti-CD19 ScFv binder M19217-1 (scFv, V domains shown)
VH: EVQLVQSGAEVKKPGASVKVSCKASGYTFTSYYMHWVRQAPGQGLEWMGLINPSGGSTSYAQKFQGRVTMTRDTSTSTVYMELSSLRSEDTAVYYCARSDRGITATDAFDIWGQGTMVTVSS
VL: QSVLTQPPSVSVAPGRMAKITCGGSDIGNKNVHWYQQKPGQAPVLVVYDDYDRPSGIPERFSGSNSGDAATLTISTVEVGDEADYFCQVWDGSGDPYWMFGGGTQLTVLG
notes: also called scFv of LTG2065
B2: human anti-CD19 ScFv binder M19217 (founder clone) (scFv)
chain: EVQLVQSGAEVKKPGASVKVSCKASGYTFTSYYMHWVRQAPGQGLEWMGIINPSGGSTSYAQKFQGRVTMTRDTSTSTVYMELSSLRSEDTAVYYCARSDRGITATDAFDIWGQGTMVTVSSGGGGSGGGGSGGGGSQSVLTQPPSVSVAPGQTAKITCGGSDIGNKNVHWYQQKPGQAPVLVVYDDYDRPSGIPERFSGSNSGDAATLTISTVEVGDEADYFCQVWDSSGDPYWVFGGGTQLTVLG
B3: human anti-CD19 ScFv binder M19217-2 (scFv)
chain: B2 chain with L45F, I50L, G56S, S85N, S148P, T158I, S229G
B4: human anti-CD19 ScFv binder M19217-29 (scFv)
chain: B2 chain with I50M, V169A, P195S, S229G, Y234F
B5: human anti-CD19 ScFv binder M19217-38 (scFv)
chain: B2 chain with K13R, Q43R, I50L, K63E, T74M, T104S, T154M, D189N, S229G, V245D
B6: human anti-CD19 ScFv binder M19217-40 (scFv)
chain: B2 chain with K13R, E46V, I50L, I157T, F223V, S229G
B7: human anti-CD19 ScFv binder M19217-23 (scFv)
chain: B2 chain with S31G, M48I, I50L, A61E, T69A, N166D, S229G, S230I
B8: human anti-CD19 ScFv binder M19217-7 (scFv)
chain: B2 chain with K12N, I50M, A105S, V149L, D189N, A206S, S229G

Target: T1, recombinant human CD19 (labeled) (human, UniProt P15391 20-291, limits assumed)
T1 construct: Fluorescently labeled antigen titrated on yeast; The sorting steps used CD19-Fc/Anti-Hu-Fc, so the labeled antigen may be the Fc fusion; also called labeled CD19; recombinant human CD19 protein
T1 sequence (looked up): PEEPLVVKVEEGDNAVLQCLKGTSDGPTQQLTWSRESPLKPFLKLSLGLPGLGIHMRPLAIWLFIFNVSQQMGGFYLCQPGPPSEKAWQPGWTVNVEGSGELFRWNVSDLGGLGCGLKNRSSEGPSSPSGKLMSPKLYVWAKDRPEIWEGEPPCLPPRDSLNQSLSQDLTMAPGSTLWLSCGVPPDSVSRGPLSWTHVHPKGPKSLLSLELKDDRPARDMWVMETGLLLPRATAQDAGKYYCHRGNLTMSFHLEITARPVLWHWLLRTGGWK
Assay: flow cytometry of yeast-displayed scFv with decreasing amounts of labeled CD19
Description: To increase the affinity of m19217, a yeast-display m19217 mutant scFv library was created by using error-prone PCR to create random point mutations in scFv gene sequences. After electroporation, the resulting mutant library was then grown overnight at 30° C. for 16 hours in SDCAA medium and then switched into SGCAA medium at 30° C. for another 16 hours. The mutant library was then sorted through MACS (immunomagentic column, Miltenyi Biotec) with CD19-Fc as the capture antigen to downsize the library and to increase the population of mutants that could bind to CD19-Fc. The strongest binders were then selected by double staining the pools with Anti-c-Myc-Alexa 488 and CD19-Fc/Anti-Hu-Fc and selecting for the binders that had the highest binding affinities as well as c-Myc expression levels. This process was then repeated two more times, until flow cytometry of yeast particles with fluorescently tagged antigen yielded average binding affinities of the mutant pools that were increased over the starting construct. Binding affinities were estimated by flow cytometry of yeast pools using decreasing amounts of labeled CD19.

Row | Binder | EC50 [µg/mL]
1 | B1 | < 0.01
2 | B2 | 0.5
3 | B3 | < 0.01
4 | B4 | < 0.01
5 | B5 | < 0.01
6 | B6 | < 0.01
7 | B7 | < 0.01
8 | B8 | < 0.01
